# Target: nck1_human NCK1 (UniProt P16333)
row,Substance,effect of a mutation on the interaction
1,"BDNF/NT-3 growth factors receptor (Rattus norvegicus (Rat)), Q63604 K571F",disrupting interaction strength
2,"BDNF/NT-3 growth factors receptor (Rattus norvegicus (Rat)), Q63604 Y515F",with no effect
3,"BDNF/NT-3 growth factors receptor (Rattus norvegicus (Rat)), Q63604 Y701F",with no effect
4,"BDNF/NT-3 growth factors receptor (Rattus norvegicus (Rat)), Q63604 Y705F",disrupting interaction strength
5,"BDNF/NT-3 growth factors receptor (Rattus norvegicus (Rat)), Q63604 Y706F",disrupting interaction strength
6,"BDNF/NT-3 growth factors receptor (Rattus norvegicus (Rat)), Q63604 Y726F",with no effect
7,"BDNF/NT-3 growth factors receptor (Rattus norvegicus (Rat)), Q63604 Y782F",disrupting interaction strength
8,"BDNF/NT-3 growth factors receptor (Rattus norvegicus (Rat)), Q63604 Y816F",with no effect

# Reference: IntAct's records for PubMed 12074588
